# According to IntAct's records for PubMed 18334649:
# B1: Receptor tyrosine-protein kinase erbB-4 (Homo sapiens), Q15303 (parent)
# chain: MKPATGLWVWVSLLVAAGTVQPSDSQSVCAGTENKLSSLSDLEQQYRALRKYYENCEVVMGNLEITSIEHNRDLSFLRSVREVTGYVLVALNQFRYLPLENLRIIRGTKLYEDRYALAIFLNYRKDGNFGLQELGLKNLTEILNGGVYVDQNKFLCYADTIHWQDIVRNPWPSNLTLVSTNGSSGCGRCHKSCTGRCWGPTENHCQTLTRTVCAEQCDGRCYGPYVSDCCHRECAGGCSGPKDTDCFACMNFNDSGACVTQCPQTFVYNPTTFQLEHNFNAKYTYGAFCVKKCPHNFVVDSSSCVRACPSSKMEVEENGIKMCKPCTDICPKACDGIGTGSLMSAQTVDSSNIDKFINCTKINGNLIFLVTGIHGDPYNAIEAIDPEKLNVFRTVREITGFLNIQSWPPNMTDFSVFSNLVTIGGRVLYSGLSLLILKQQGITSLQFQSLKEISAGNIYITDNSNLCYYHTINWTTLFSTINQRIVIRDNRKAENCTAEGMVCNHLCSSDGCWGPGPDQCLSCRRFSRGRICIESCNLYDGEFREFENGSICVECDPQCEKMEDGLLTCHGPGPDNCTKCSHFKDGPNCVEKCPDGLQGANSFIFKYADPDRECHPCHPNCTQGCNGPTSHDCIYYPWTGHSTLPQHARTPLIAAGVIGGLFILVIVGLTFAVYVRRKSIKKKRALRRFLETELVEPLTPSGTAPNQAQLRILKETELKRVKVLGSGAFGTVYKGIWVPEGETVKIPVAIKILNETTGPKANVEFMDEALIMASMDHPHLVRLLGVCLSPTIQLVTQLMPHGCLLEYVHEHKDNIGSQLLLNWCVQIAKGMMYLEERRLVHRDLAARNVLVKSPNHVKITDFGLARLLEGDEKEYNADGGKMPIKWMALECIHYRKFTHQSDVWSYGVTIWELMTFGGKPYDGIPTREIPDLLEKGERLPQPPICTIDVYMVMVKCWMIDADSRPKFKELAAEFSRMARDPQRYLVIQGDDRMKLPSPNDSKFFQNLLDEEDLEDMMDAEEYLVPQAFNIPPPIYTSRARIDSNRSEIGHSPPPAYTPMSGNQFVYRDGGFAAEQGVSVPYRAPTSTIPEAPVAQGATAEIFDDSCCNGTLRKPVAPHVQEDSSTQRYSADPTVFAPERSPRGELDEEGYMTPMRDKPKQEYLNPVEENPFVSRRKNGDLQALDNPEYHNASNGPPKAEDEYVNEPLYLNTFANTLGKAEYLKNNILSMPEKAKKAFDNPDYWNHSLPPRSTLQHPDYLQEYSTKYFYKQNGRIRPIVAENPEYLSEFSLKPGTVLPPPPYRHRNTVV
# Variants of: B1
# Settings: with ITCH
row,effect of a mutation on the interaction,Variant
1,disrupting interaction,P1054A
2,disrupting interaction,Y1056F
